In patent publication US20240287172A1 (SCIRHOM, published 2024):
Positions count from the first letter of the chain named.

T1: hiR2-FL-T436V-T7 (human, UniProt Q6PJF5 1-856)
T1 sequence: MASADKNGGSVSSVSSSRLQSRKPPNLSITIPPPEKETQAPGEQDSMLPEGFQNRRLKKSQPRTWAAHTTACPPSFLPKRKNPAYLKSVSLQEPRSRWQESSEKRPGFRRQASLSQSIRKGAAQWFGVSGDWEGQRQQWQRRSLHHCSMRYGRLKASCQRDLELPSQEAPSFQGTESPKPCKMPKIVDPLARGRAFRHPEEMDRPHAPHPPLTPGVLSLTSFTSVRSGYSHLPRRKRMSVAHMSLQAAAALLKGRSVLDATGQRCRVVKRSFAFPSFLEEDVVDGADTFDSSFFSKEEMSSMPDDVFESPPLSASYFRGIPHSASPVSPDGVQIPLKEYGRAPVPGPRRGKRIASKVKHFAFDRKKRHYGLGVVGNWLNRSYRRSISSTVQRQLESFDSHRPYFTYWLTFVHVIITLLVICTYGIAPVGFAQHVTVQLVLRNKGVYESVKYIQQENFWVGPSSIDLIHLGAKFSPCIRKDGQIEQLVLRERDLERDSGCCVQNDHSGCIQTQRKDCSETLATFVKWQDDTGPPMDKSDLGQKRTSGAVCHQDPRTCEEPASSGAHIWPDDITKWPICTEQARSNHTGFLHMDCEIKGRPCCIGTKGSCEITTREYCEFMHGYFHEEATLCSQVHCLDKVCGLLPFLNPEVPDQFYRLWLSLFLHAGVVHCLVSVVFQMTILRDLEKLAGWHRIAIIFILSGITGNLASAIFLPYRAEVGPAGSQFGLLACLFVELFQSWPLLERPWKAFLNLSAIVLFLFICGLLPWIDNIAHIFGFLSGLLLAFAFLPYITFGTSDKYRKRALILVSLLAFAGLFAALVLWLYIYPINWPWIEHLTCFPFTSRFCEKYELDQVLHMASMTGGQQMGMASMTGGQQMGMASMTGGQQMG

T2: hiR2-FL-V434E-T7 (human, UniProt Q6PJF5 1-856)
T2 sequence: T1 sequence with V434E, V436T

B1: antibody 48 (antibody, V domains shown)
VH: QVQLQQSGTELVRPGTSVKVSCKASGYAFTNYLIEWVKQRPGQGLEWIGVINPGSGFTKYNEKFKGKATLTADKSSSTVYMHLSSLTSEDSAVYFCARGLYRAMDYWGQGTSVTVSS
VL: DIQMTQSPASQSASLGESVTITCLASQTIATWLAWYQQKPGKSPQLLIYGATTLADGVPSRFSGGGSGTKFSFKISSLQAEDFVSYYCQQLYSTPYTFGGGTKLEIK
notes: mouse IgG, kappa light chain; also called clone #48; purified antibody 48
B2: antibody 50 (antibody, V domains shown)
VH: B1 VH with T9A, T16A, T30S, V79A, H82Q
VL: B1 VL with A30G, G50A, T52A, T53S, S85N, L91I
notes: mouse IgG, kappa light chain; also called clone #50; purified antibody 50

What was measured:
[1] = target: T1, hiR2-FL-T436V-T7; assay: FACS, MEF-DKO cells, 3 µg/ml
From the text: (§1) In brief, immortalized MEF-DKO-hiR2-FL-A431S-T7, MEF-DKO-hiR2-FL-V434E-T7, MEF-DKO-hiR2-FL-T436V-T7, MEF-DKO-hiR2-FL-Q437D-T7, MEF-DKO-hiR2-FL-L438S-T7, MEF-DKO-hiR2-FL-S448N-T7, MEF-DKO-hiR2-FL-I452V-T7, MEF-DKO-hiR2-FL-I464E-T7, MEF-DKO-hiR2-FL-D465A-T7, MEF-DKO-hiR2-FL-I477M-T7, MEF-DKO-hiR2-FL-K479Q-T7, MEF-DKO-hiR2-FL-G481P-T7, MEF-DKO-hiR2-FL-I483V-T7, MEF-DKO-hiR2-FL-E484H-T7, MEF-DKO-hiR2-FL-Q485S-T7, MEF-DKO-hiR2-FL-L486F-T7, MEF-DKO-hiR2-FL-V487I-T7, MEF-DKO-hiR2-FL-R489S-T7, MEF-DKO-hiR2-FL-E490A-T7, MEF-DKO-hiR2-FL-D492E-T7, MEF-DKO-hiR2-FL-L493R-T7, MEF-DKO-hiR2-FL-R495K-T7 and MEF-DKO-hiR2-FL-D496H-T7 cells were harvested with 10 mM EDTA in PBS, washed and resuspended in FACS buffer (PBS, 3% FBS, 0.05% sodium azide), and seeded in Nunc U-bottom 96-well plates (Thermo Fisher Scientific, USA) at approximately 1×10⁵ cells per well. To pellet cells and remove supernatants, the plates were centrifuged at 1,500 rpm and 4° C. for 3 minutes. For primary staining, cells were resuspended in 100 μl per well of either FACS buffer alone (controls) or the purified antibodies 3, 5, 16, 22, 34, 42, 43, 44, 48, and 50 of the invention at 3 μg/ml in FACS buffer and incubated on ice for 1 hour. Afterwards, plates were centrifuged at 1,500 rpm and 4° C. for 3 minutes and washed twice with 200 μl per well of FACS buffer. For secondary staining, cells were spun down and resuspended in 100 μl per well of PE-conjugated goat anti-mouse IgG F(ab′)2 detection fragment (Dianova, Germany) diluted 1:100 in FACS buffer. Protected from light, the cell suspensions were incubated on ice for 1 hour. Plates were then centrifuged at 1,500 rpm and 4° C. for 3 minutes and washed three times with 200 μl per well of FACS buffer. Finally, cells were resuspended in 150 μl per well of FACS buffer and analyzed using a BD Accuri™ C6 Plus flow cytometer (Becton Dickinson, Germany).

[2] = target: T2, hiR2-FL-V434E-T7; assay: FACS, MEF-DKO cells, 3 µg/ml
From the text: as §1

Row | Binder | loss of binding vs wild type [1] | loss of binding vs wild type [2]
1 | B1 | ≥ 30% | ≥ 30%
2 | B2 | ≥ 30% | ≥ 30%
